Literature values, collected in US20090048308A1, “VLA-4 Antagonists” (priority 2005, published 2009).

Biological target: T1, VLA-4 (Homo sapiens, UniProt P13612)
T1 construct: host or cells: VLA-4-bearing blood cells of trial subjects (inferred)
Conditions: early clinical trials

Substance: natalizumab: humanized monoclonal antibody against α4 (Tysabri®, Elan/Biogen)
- receptor occupancy: > 80%
